Source: patent CN116715768A

Target: EGFRvIII (表皮生长因子受体III型突变体) (human) (UniProt P00533)
Experiment: flow cytometry; antibody supernatant on EGFRvIII-PBMC engineered cells, detected with anti-mouse-APC IgG

B1: Anti EGFRvIII抗体 (抗EGFRvIII单克隆抗体) (antibody, V domains shown)
VH: QVQTQQSGTELVRPGALVKLSCKPSGFNIKDYYMHWVKQRPEQGLEWIGWIDPENGKTKYAPKFQGKAIITADRSSNTAYLQLSSLTSEDTAVYYCAGTADWGQGTTVTVSS
VL: DIQLTQSPLTLSVSIGQPASISCKSSQSLLHSDGETYLNWLLQRPGQSPKRLIYLVSKLDSGVPDRFTGTGSGTDFTLKISRVEAEDLGVYYCWQGKHFPYTFGGGTKLEI
  结合率 (APC阳性比率): 93.7%
